± gives the standard deviation.

The series in a line: protein stability index of a GFP-peptide fusion (GPS, HEK-293T) (PSI 1-6); higher = more stable. The following applies: c terminus: a fixed tail appended.
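Further: 24-mer peptide tiles fused after GFP, lentivirally expressed, FACS-sorted into six equal bins by GFP/DsRed ratio, decoded by Illumina sequencing, PSI is the read-weighted mean bin number.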

Take LLMAVVSMFTLPVVYVKHQAQIDQ [RTN1]: the protein stability index is 2.99 ± 0.39 (treatment: DMSO) and 3.32 ± 0.43 (treatment: MLN4924 1 uM, 8 h).

Consider TVLLEEETLEASVGPRETEEKVRD [TOR1AIP2], for which the protein stability index was 5.59 ± 0.21 (treatment: DMSO) and 5.51 ± 0.24 (treatment: MLN4924 1 uM, 8 h).

On to LKSISAEEILTLFCGAPPVTPIIV [PHTF1], for which the protein stability index reads like this: (treatment: DMSO) 3.16 ± 0.29; (treatment: MLN4924 1 uM, 8 h) 2.62 ± 0.53.

For the sequence IKIFKYISFNKTMTQLSSTLARCA [PKD2L1], the protein stability index runs as follows: (treatment: DMSO) 2.37 ± 0.15; (treatment: MLN4924 1 uM, 8 h) 2.26 ± 0.19.

Consider FLAAEQDIREEIRKVVQSLEQTAR [TSN], for which the protein stability index runs as follows: (treatment: DMSO) 2.57 ± 0.45; (treatment: MLN4924 1 uM, 8 h) 3.25 ± 0.64.

Take TDGLQEVPLCSCRMETPKSREITT [EHMT1]: the protein stability index is, setting by setting: (treatment: DMSO) 3.21 ± 0.25; (treatment: MLN4924 1 uM, 8 h) 3.07 ± 0.26.

On to RALQEEERAAAQARRELQAEREAL [ZBED3], for which the protein stability index was 5.36 ± 0.19 (treatment: DMSO) and 5.45 ± 0.18 (treatment: MLN4924 1 uM, 8 h).

As for MLAIITKMTLTQVSTWFANARRRL [IRX6], the protein stability index is, setting by setting: (treatment: DMSO) 2.29 ± 0.49; (treatment: MLN4924 1 uM, 8 h) 2.26 ± 0.27.

Turning to NLNREEKIIREIDFYREDEDEEEE [TRIM55], the protein stability index (treatment: DMSO) turned out to be 5.37 ± 0.15 and the protein stability index (treatment: MLN4924 1 uM, 8 h) stood at 5.3 ± 0.32.

On to QRALHKYSLMKRQMMSATAQNREP [SNX8], for which the protein stability index by setting is: (treatment: DMSO) 3.24 ± 0.29; (treatment: MLN4924 1 uM, 8 h) 3.32 ± 0.18.

Consider RAGPDSAGIALYSHEDVCVFKCSV [CARM1], for which the protein stability index came out at 2.35 ± 0.47 (treatment: DMSO) and 2.06 ± 0.41 (treatment: MLN4924 1 uM, 8 h).

The sequence AFEAARDLDACALVRGHRRRLLRR [ZSWIM9] returned a protein stability index (treatment: DMSO) of 4.5 ± 0.2 and a protein stability index (treatment: MLN4924 1 uM, 8 h) of 4.45 ± 0.21.

As to PQQQHHKAKRNRTCRPPSSSESSS [ANKRD17], the protein stability index runs as follows: (treatment: DMSO) 4.86 ± 0.16; (treatment: MLN4924 1 uM, 8 h) 4.92 ± 0.29.

As for TYLRLIVDHHGTAQLQALRQKEVD [INTS3], the protein stability index reads like this: (treatment: DMSO) 2.27 ± 0.2; (treatment: MLN4924 1 uM, 8 h) 2.35 ± 0.3.

LGQIVLLPAEARERSRGRSISRGR [MATN2]: the protein stability index is 3.86 ± 0.45 (treatment: DMSO) and 4.21 ± 0.18 (treatment: MLN4924 1 uM, 8 h).

In turn, LSQMGAQSSGKILLCPLCQEEEQA [TRIM15] came in with a protein stability index (treatment: DMSO) of 3.85 ± 0.5 and a protein stability index (treatment: MLN4924 1 uM, 8 h) of 4.39 ± 0.23.

As to FSGSNEVDQMNRIVEVLGIPPAAM [DYRK1B], the protein stability index reads like this: (treatment: DMSO) 2.94 ± 0.14; (treatment: MLN4924 1 uM, 8 h) 3.23 ± 0.22.

As for SRRIPSTDANLPSGGKGFKLRRQP [RAB22A], the protein stability index by setting is: (treatment: DMSO) 4.09 ± 0.18; (treatment: MLN4924 1 uM, 8 h) 4.25 ± 0.23.

Regarding IKIRPGEFEQFESTIGFKLPNHRA [EPB41L3], the protein stability index was determined as 2.64 ± 0.03 (treatment: DMSO) and 2.75 ± 0.63 (treatment: MLN4924 1 uM, 8 h).

On to MTTPAGSGSGFGSVSWWGLSPALD [DNAAF3], for which the protein stability index reads like this: (treatment: DMSO) 2.47 ± 0.29; (treatment: MLN4924 1 uM, 8 h) 2.75 ± 0.36.

Consider QELIETNQQLRNELQLEQSRAANQ [CEP70], for which the protein stability index reads like this: (treatment: DMSO) 5.122 ± 0.01; (treatment: MLN4924 1 uM, 8 h) 5.05 ± 0.26.

KNLLHAEFLRVQEERILHQQVKCI [VPS39] came in with a protein stability index (treatment: DMSO) of 2.58 ± 0.16 and a protein stability index (treatment: MLN4924 1 uM, 8 h) of 2.71 ± 0.26.

EAAFHPIEEYMVHVEEHFQLLARR [FUT8] gave a protein stability index (treatment: DMSO) of 3.06 ± 0.29 and a protein stability index (treatment: MLN4924 1 uM, 8 h) of 3.34 ± 0.36.

Take ALGDIREVQKLVESGVDVNSQNEV [ANKRD40]: the protein stability index worked out at 5.28 ± 0.3 (treatment: DMSO) and 5.24 ± 0.29 (treatment: MLN4924 1 uM, 8 h).

In the case of VTLLVRGVCYSESQSSASQPRLSY [CLCN6], the protein stability index by setting is: (treatment: DMSO) 2.83 ± 0.41; (treatment: MLN4924 1 uM, 8 h) 2.29 ± 0.6.

In the case of VEMLCDQAWGSMLEVPAGSRLNLT [CCDC3], the protein stability index is, setting by setting: (treatment: DMSO) 2.75 ± 0.28; (treatment: MLN4924 1 uM, 8 h) 2.96 ± 0.31.

EGSGHSTGEDSAFQEPDSPLPPAR [WEE1]: the protein stability index was 5.48 ± 0.14 (treatment: DMSO) and 5.52 ± 0.13 (treatment: MLN4924 1 uM, 8 h).

With RYLFLDGDSHYEIEIVHISTVQIL [ZFYVE21], the protein stability index (treatment: DMSO) was determined as 2.89 ± 0.26 and the protein stability index (treatment: MLN4924 1 uM, 8 h) came out at 2.61 ± 0.4.

Regarding AVGNSSGSGQNEESPRKRKKATEA [FBXO28], the protein stability index by setting is: (treatment: DMSO) 4.95 ± 0.34; (treatment: MLN4924 1 uM, 8 h) 5.29 ± 0.27.

As for DTRVYIWDPHNGDILMEFGHLFPP [WSB1], the protein stability index is, setting by setting: (treatment: DMSO) 2.38 ± 0.98; (treatment: MLN4924 1 uM, 8 h) 2.42 ± 0.44.

On to RNLRTQQEIEDKMKGFSFKEDTLL [C8orf76], for which the protein stability index reads like this: (treatment: DMSO) 4.11 ± 0.12; (treatment: MLN4924 1 uM, 8 h) 4.16 ± 0.19.

Take SSHMNIDITDDCICDLARSIDFNK [PPEF2]: the protein stability index is, setting by setting: (treatment: DMSO) 3.67 ± 0.35; (treatment: MLN4924 1 uM, 8 h) 3.89 ± 0.19.

Regarding EFKQNIENVSVEMLLRKFAESKGT [FCHO1], the protein stability index was determined as 2.84 ± 0.27 (treatment: DMSO) and 3.02 ± 0.32 (treatment: MLN4924 1 uM, 8 h).

As for KYDMEVRVQKTSKELEDMNQKLFD [TNNI2], the protein stability index by setting is: (treatment: DMSO) 4.81 ± 0.13; (treatment: MLN4924 1 uM, 8 h) 4.73 ± 0.2.

Turning to PAPGKLLGPCVVGYGIYYFIYSTW [SAT2], the protein stability index is, setting by setting: (treatment: DMSO) 2.62 ± 0.65; (treatment: MLN4924 1 uM, 8 h) 2.92 ± 0.46.

GEGLNVIQQTTRYFSTPQTMDLFL [NANOGP8]: the protein stability index is 2.09 ± 0.34 (treatment: DMSO) and 2.32 ± 0.057 (treatment: MLN4924 1 uM, 8 h).

For the origin of these results see the supplement of paper PMC10567573.
